# Patent US8835136B2, “Engineered amine dehydrogenases and methods of use thereof” (Georgia Tech Research Corporation, priority 2012, dated 2014)
# Positions count from the first letter of the chain named. Names may count otherwise.
# B1: K77W N276E: PheDH-AmDH double variant, SEQ ID NO:3; PheDH library 1 hit 7F10 (protein)
# chain: SLVEKTSIIKDFTLFEKMSEHEQVVFCNDPATGLRAIIAIHDTTLGPALGGCRMQPYNSVEEALEDALRLSKGMTYWCAASDVDFGGGKAVIIGDPQKDKSPELFRAFGQFVDSLGGRFYTGTDMGTNMEDFIHAMKETNCIVGVPEAYGGGGDSSIPTAMGVLYGIKATNKMLFGKDDLGGVTYAIQGLGKVGYKVAEGLLEEGAHLFVTDINEQTLEAIQEKAKTTSGSVTVVASDEIYSQEADVFVPCAFGGVVNDETMKQFKVKAIAGSANEQLLTEDHGRHLADKGILYAPDYIVNSGGLIQVADELYEVNKERVLAKTKHIYDAILEVYQQAELDQITTMEAANRMCEQRMAARGRRNSFFTSSVKPKWDIRN
# B2: Asn276Val: B. badius PheDH single variant (protein, listed as Bacillus badius)
# chain: B1 chain with W77K, E276V
# B3: Lys77Met: B. badius PheDH single variant (protein, listed as Bacillus badius)
# chain: B1 chain with W77M, E276N
# B4: K67M: LeuDH single variant, library 1 (protein, listed as Bacillus stearothermophilus)
# chain: ELFQYMEKYDYEQVLFCQDKESGLKAIIVIHDTTLGPALGGTRMWMYNSEEEALEDALRLARGMTYMNAAAGLNLGGGKTVIIGDPRKDKNEAMFRAFGRFIQGLNGRYITAEDVGTTVADMDIIYQETDYVTGISPEFGSSGNPSPATAYGVYRGMKAAAKEAFGSDSLEGKVVAVQGVGNVAYHLCRHLHEEGAKLIVTDINKEAVARAVEEFGAKAVDPNDIYGVECDIFAPCALGGIINDQTIPQLKAKVIAGSADNQLKEPRHGDMIHEMGIVYAPDYVINAGGVINVADELYGYNRERAMKKIEQIYDNIEKVFAIAKRDNIPTYVAADRMAEERIETMRKARSQFLQNGHHILSRRRAR
# B5: K67M/E113V/N261V/V290C: LeuDH-AmDH variant, SEQ ID NO:8, library 10 (protein)
# chain: B4 chain with E113V, N261V, V290C
# B6: K67M, E113V: LeuDH-AmDH variant, SEQ ID NO:5 (protein)
# chain: B4 chain with E113V
# B7: K67M/E113V/N261C/V290C: LeuDH-AmDH variant, SEQ ID NO:9, library 10 (protein)
# chain: B4 chain with E113V, N261C, V290C
# What was measured:
# Assay type in all cases: biochemical
# [1] = Reductive amination of PFPA, spectrophotometric assay at 340 nm; settings: 500 mM NH4Cl/NH4OH pH 9.6, 200 μM NADH; for kcat, amination of PFPA: apparent; for Km: read-out: KM, amination of PFPA
# Description: (§1) Activity of purified proteins was measured using a spectrophotometric assay at 340 nm, corresponding to the cofactor nicotinamide adenine dinucleotide (NADH, ε340=6220 M^−1 cm^−1) (Dawson, et al., Clarendon Press, (1989). For reductive amination, reactions took place in 500 mM NH4Cl/NH4OH at pH 9.6, with 200 μM NADH and 20 mM of the ketone substrate, unless otherwise specified. For oxidative deamination, reactions took place in 0.1 M NaHCO3/Na2CO3 buffer at pH 10.0, with 1 mM NAD+ with 10 mM of the amine substrate of interest. All reactions were performed at 25° C. unless otherwise specified. Enzyme was added in 10 μL aliquots in dilute concentrations. Enzyme concentrations varied upon activity levels with the substrate present, but were dilute enough to ensure linear conversion kinetics over the analytical time period (10 min to 30 min). Specific activities were then calculated from the stoichiometric conversion of cofactor as determine by the change in absorbance at 340 nm over time.
# The activity of the purified protein was evaluated using a spectrophotometric assay at 340 nm as described in Section 3.2.3 at 25° C. in various concentrations of NH4Cl/NH4OH buffer pH 9.6.
# Active variants were identified by the rate of change in absorbance at 340 nm, corresponding to the fastest activity. […] Some variants consumed the cofactor too quickly (<5 min) to be observed over multiple time points, and gave low absorbance in the initial time point. These variants were included for further characterization. The successful variants were sequenced (MWG Operon), and each unique sequence was expressed in pET28a/BL21 for histag purification and determination of kcat and KM values with PFPA.
# [2] = Oxidative deamination, spectrophotometric assay at 340 nm; settings: for Deamination Activity 40 mM 1,3-DMBA, kcat: 0.1M Glycine pH 10.0, 1 mM NAD+, 25° C.; for Oxidative deamination specific activity: maximum specific activity, 1,3-DMBA
# Description: as §1, with “For oxidative deamination, reactions took place in 0.1 M NaHCO3/Na2CO3 buffer at pH 10.0, with 1 mM NAD+ with 10 mM of the amine substrate of interest.” left out
# [3] = Reductive amination, spectrophotometric assay at 340 nm; settings: for Amination Activity 40 mM MIBK, kcat: 500 mM NH4Cl/NH4OH pH 9.6, 200 μM NADH, 25° C.; for Reductive amination specific activity: maximum specific activity, nonlinear fit
# Description: as §1
# [4] = Oxidative deamination, spectrophotometric assay at 340 nm; settings: 20 mM substrate
# Description: as §1, with “For oxidative deamination, reactions took place in 0.1 M NaHCO3/Na2CO3 buffer at pH 10.0, with 1 mM NAD+ with 10 mM of the amine substrate of interest.” left out
# The enantioselectivity was initially estimated by measuring the deamination activity toward individual enantiomers of methylbenzylamine (MBA). […] A preference towards (R)-MBA over the corresponding (S)-enantiomer was evident in the discrepancies between the deamination activities of 0.586 U mg^−1 and 0.002 U mg^−1, respectively. These preliminary results were corroborated through direct measurement of the enantioselectivity of the MIBK amination in producing chiral 1,3-DMBA.
# [5] = 1,3-DMBA substrate, read-out: KM (oxidative deamination)
# [6] = purified LeuDH library 10/11 hits
# [7] = purified LeuDH library 10/11 hits, read-out: Deamination of 1,3-DMBA KM
# [8] = MIBK substrate, read-out: KM (reductive amination)
# [9] = purified LeuDH library 10/11 hits, read-out: Amination of MIBK KM
molecule,measurement,setting,value
B1,"kcat, amination of PFPA",[1],2.63 s⁻¹
same,"kcat, amination of PFPA",[1]; listed as 7F10,2.631 ± 0.159 s⁻¹
same,Km,[1]; listed as 7F10,5.3 ± 0.6 mM
same,Km,[1],5.32 mM
B2,"Deamination Activity 40 mM 1,3-DMBA, kcat",[2],0.0016 ± 0.000 s⁻¹
same,"Amination Activity 40 mM MIBK, kcat",[3],n.m.
B3,"Deamination Activity 40 mM 1,3-DMBA, kcat",[2],0.0033 ± 0.000 s⁻¹
same,"Amination Activity 40 mM MIBK, kcat",[3],0.0009 ± 0.000 s⁻¹
B4,"activity in the oxidative deamination of racemic 1,3-DMBA",[2],3.4 mU mg^−1
same,Oxidative deamination specific activity,[2],0.0034 U mg^−1 protein
same,activity for reductive amination,[3]; MIBK,0.2 mU mg^−1
same,Reductive amination specific activity,[3]; MIBK,0.0002 U mg^−1 protein
B5,"Specific activity, (R/S)-MBA","[2]; 40 mM racemic, 20 mM of each enantiomer",484.0 mU mg^−1 protein
same,Km,[2]; [5],30.9 mM
same,Oxidative deamination specific activity,[2],2.81 U mg^−1 protein
same,"Deamination of 1,3-DMBA Vmax",[2]; [6],2.894 ± 0.44
same,Km,[2]; [7],33.1 ± 13 mM
same,"Specific activity, (R)-MBA",[4],476.5 mU mg^−1 protein
same,"Specific activity, (S)-MBA",[4],5.0 mU mg^−1 protein
same,"Specific activity, acetophenone",[3]; 20 mM substrate,3.5 mU mg^−1 protein
same,"Specific activity, cyclohexanone",[3]; 20 mM substrate,18.8 mU mg^−1 protein
same,"Specific activity, ethyl pyruvate",[3]; 20 mM substrate,19.8 mU mg^−1 protein
same,"Specific activity, ethyl-3-oxohexanoate",[3]; 20 mM substrate,6.4 mU mg^−1 protein
same,"Specific activity, methyl acetoacetate",[3]; 20 mM substrate,4.5 mU mg^−1 protein
same,Km,[3]; [8],10.3 mM
same,Reductive amination specific activity,[3]; MIBK,0.089 U mg^−1 protein
same,Amination of MIBK Vmax,[3]; [6],0.084 ± 0.01
same,Km,[3]; [9],21 ± 8.5 mM
B6,Km,[2]; [5],48 mM
same,Oxidative deamination specific activity,[2],0.65 U mg^−1 protein
same,Reductive amination specific activity,[3]; MIBK,0.015 U mg^−1 protein
B7,Km,[2]; [5],14.8 mM
same,Oxidative deamination specific activity,[2],1.76 U mg^−1 protein
same,"Deamination of 1,3-DMBA Vmax",[2]; [6],1.76 ± 0.20
same,Km,[2]; [7],14.8 ± 6.1 mM
same,Km,[3]; [8],21.6 mM
same,Reductive amination specific activity,[3]; MIBK,0.236 U mg^−1 protein
same,Amination of MIBK Vmax,[3]; [6],0.236 ± 0.04
same,Km,[3]; [9],21.6 ± 11.5 mM
